Test results reported in the supplement of paper PMC11908140.

B1: library; numbered along this chain (parent)
chain: MRKPRAAVGSGHRKQAASQEGRQKHAKNNSQAKPSACDGLARQPEEVVLQASVSSYHLFRDVAEVTAFRGSLLSWYDQEKRDLPWRRRAEDEMDLDRRAYAVWVSEVMLQQTQVATVINYYTGWMQKWPTLQDLASASLEEVNQLWAGLGYYSRGRRLQEGARKVVEELGGHMPRTAETLQQLLPGVGRYTAGAIASIAFGQATGVVDGNVARVLCRVRAIGADPSSTLVSQQLWGLAQQLVDPARPGDFNQAAMELGATVCTPQRPLCSQCPVESLCRARQRVEQEQLLASGSLSGSPDVEECAPNTGQCHLCLPPSEPWDQTLGVVNFPRKASRKPPREESSATCVLEQPGALGAQILLVQRPNSGLLAGLWEFPSVTWEPSEQLQRKALLQELQRWAGPLPATHLRHLGEVVHTFSHIKLTYQVYGLALEGQTPVTTVPPGARWLTQEEFHTAAVSTAMKKVFRVYQGQQPGTCMGSKRSQVSSPCSRKKPRMGQQVLDNFFRSHISTDAHSLNSAAQ

Variants of: B1
Test: 8OG:A repair function score (normalized; synonymous = 0, nonsense = -1) (normalized log-likelihood score); higher = more repair activity (WT-like)
Details: with 8OG:A DNA repair reporter (GFP) in HEK-293 MUTYH KO cells
Outline: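 GFP+ (repair) and GFP− bins of viable mCherry+ cells were collected at 72 h from MUTYH knockout HEK-293 cells bearing lentiviral MUTYH cDNA NNN codon-scan libraries in 10 pg/ml doxycycline, co-transfected with an 8OG:A GFP repair reporter and mCherry. Tile amplicons were sequenced, and per-tile Rosace fitness scores were normalized to a repair function score anchored on synonymous and nonsense distributions. Synonymous medians were set to 0 and nonsense to -1, with variants under 300 counts per million at the start removed.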
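Also: cells sorted at 72 h after reporter transfection.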

Row | Variant | 8OG:A repair function score
1 | MRKPRAAVGSGHRKQAASQEGRQKHAKNNSQAKPSACDGLARQPEEVVLQASVSSYHLFRDVAEVTAFRGSLLSWYDQEKRDLPWRRRAEDEMDLDRRAYAVWVSEVMLQQTQVATVINYYTGWMQKWPTLQDLASASLEEVNQLWAGLGYYSRGRRLQEGARKVVEELGGHMPRTAETLQQLLPGVGRYTAGAIASIAFGQATGVVDGNVARVLCRVRAIGADPSSTLVSQQLWGLAQQLVDPARPGDFNQAAMELGATVWTPQRPLCSQCPVESLCRARQRVEQEQLLASGSLSGSPDVEECAPNTGQCHLCLPPSEPWDQTLGVVNFPRKASRKPPREESSATCVLEQPGALGAQILLVQRPNSGLLAGLWEFPSVTWEPSEQLQRKALLQELQRWAGPLPATHLRHLGEVVHTFSHIKLTYQVYGLALEGQTPVTTVPPGARWLTQEEFHTAAVSTAMKKVFRVYQGQQPGTCMGSKRSQVSSPCSRKKPRMGQQVLDNFFRSHISTDAHSLNSAAQ [C262W] | -0.941
2 | MRKPRAAVGSGHRKQAASQEGRQKHAKNNSQAKPSACDGLARQPEEVVLQASVSSYHLFRDVAEVTAFRGSLLSWYDQEKRDLPWRRRAEDEMDLDRRAYAVWVSEVMLQQTQVATVINYYTGWMQKWPTLQDLASASLEEVNQLWAGLGYYSRGRRLQEGARKVVEELGGHMPRTAETLQQLLPGVGRYTAGAIASIAFGQATGVVDGNVARVLCRVRAIGADPSSTLVSQQLWGLAQQLVDPARPGDFNQAAMELGATVYTPQRPLCSQCPVESLCRARQRVEQEQLLASGSLSGSPDVEECAPNTGQCHLCLPPSEPWDQTLGVVNFPRKASRKPPREESSATCVLEQPGALGAQILLVQRPNSGLLAGLWEFPSVTWEPSEQLQRKALLQELQRWAGPLPATHLRHLGEVVHTFSHIKLTYQVYGLALEGQTPVTTVPPGARWLTQEEFHTAAVSTAMKKVFRVYQGQQPGTCMGSKRSQVSSPCSRKKPRMGQQVLDNFFRSHISTDAHSLNSAAQ [C262Y] | -1.21
3 | MRKPRAAVGSGHRKQAASQEGRQKHAKNNSQAKPSACDGLARQPEEVVLQASVSSYHLFRDVAEVTAFRGSLLSWYDQEKRDLPWRRRAEDEMDLDRRAYAVWVSEVMLQQTQVATVINYYTGWMQKWPTLQDLASASLEEVNQLWAGLGYYSRGRRLQEGARKVVEELGGHMPRTAETLQQLLPGVGRYTAGAIASIAFGQATGVVDGNVARVLCRVRAIGADPSSTLVSQQLWGLAQQLVDPARPGDFNQAAMELGATVVTPQRPLCSQCPVESLCRARQRVEQEQLLASGSLSGSPDVEECAPNTGQCHLCLPPSEPWDQTLGVVNFPRKASRKPPREESSATCVLEQPGALGAQILLVQRPNSGLLAGLWEFPSVTWEPSEQLQRKALLQELQRWAGPLPATHLRHLGEVVHTFSHIKLTYQVYGLALEGQTPVTTVPPGARWLTQEEFHTAAVSTAMKKVFRVYQGQQPGTCMGSKRSQVSSPCSRKKPRMGQQVLDNFFRSHISTDAHSLNSAAQ [C262V] | -1.26
4 | MRKPRAAVGSGHRKQAASQEGRQKHAKNNSQAKPSACDGLARQPEEVVLQASVSSYHLFRDVAEVTAFRGSLLSWYDQEKRDLPWRRRAEDEMDLDRRAYAVWVSEVMLQQTQVATVINYYTGWMQKWPTLQDLASASLEEVNQLWAGLGYYSRGRRLQEGARKVVEELGGHMPRTAETLQQLLPGVGRYTAGAIASIAFGQATGVVDGNVARVLCRVRAIGADPSSTLVSQQLWGLAQQLVDPARPGDFNQAAMELGATVCFPQRPLCSQCPVESLCRARQRVEQEQLLASGSLSGSPDVEECAPNTGQCHLCLPPSEPWDQTLGVVNFPRKASRKPPREESSATCVLEQPGALGAQILLVQRPNSGLLAGLWEFPSVTWEPSEQLQRKALLQELQRWAGPLPATHLRHLGEVVHTFSHIKLTYQVYGLALEGQTPVTTVPPGARWLTQEEFHTAAVSTAMKKVFRVYQGQQPGTCMGSKRSQVSSPCSRKKPRMGQQVLDNFFRSHISTDAHSLNSAAQ [T263F] | -0.0981
5 | MRKPRAAVGSGHRKQAASQEGRQKHAKNNSQAKPSACDGLARQPEEVVLQASVSSYHLFRDVAEVTAFRGSLLSWYDQEKRDLPWRRRAEDEMDLDRRAYAVWVSEVMLQQTQVATVINYYTGWMQKWPTLQDLASASLEEVNQLWAGLGYYSRGRRLQEGARKVVEELGGHMPRTAETLQQLLPGVGRYTAGAIASIAFGQATGVVDGNVARVLCRVRAIGADPSSTLVSQQLWGLAQQLVDPARPGDFNQAAMELGATVCKPQRPLCSQCPVESLCRARQRVEQEQLLASGSLSGSPDVEECAPNTGQCHLCLPPSEPWDQTLGVVNFPRKASRKPPREESSATCVLEQPGALGAQILLVQRPNSGLLAGLWEFPSVTWEPSEQLQRKALLQELQRWAGPLPATHLRHLGEVVHTFSHIKLTYQVYGLALEGQTPVTTVPPGARWLTQEEFHTAAVSTAMKKVFRVYQGQQPGTCMGSKRSQVSSPCSRKKPRMGQQVLDNFFRSHISTDAHSLNSAAQ [T263K] | -0.017
6 | MRKPRAAVGSGHRKQAASQEGRQKHAKNNSQAKPSACDGLARQPEEVVLQASVSSYHLFRDVAEVTAFRGSLLSWYDQEKRDLPWRRRAEDEMDLDRRAYAVWVSEVMLQQTQVATVINYYTGWMQKWPTLQDLASASLEEVNQLWAGLGYYSRGRRLQEGARKVVEELGGHMPRTAETLQQLLPGVGRYTAGAIASIAFGQATGVVDGNVARVLCRVRAIGADPSSTLVSQQLWGLAQQLVDPARPGDFNQAAMELGATVCDPQRPLCSQCPVESLCRARQRVEQEQLLASGSLSGSPDVEECAPNTGQCHLCLPPSEPWDQTLGVVNFPRKASRKPPREESSATCVLEQPGALGAQILLVQRPNSGLLAGLWEFPSVTWEPSEQLQRKALLQELQRWAGPLPATHLRHLGEVVHTFSHIKLTYQVYGLALEGQTPVTTVPPGARWLTQEEFHTAAVSTAMKKVFRVYQGQQPGTCMGSKRSQVSSPCSRKKPRMGQQVLDNFFRSHISTDAHSLNSAAQ [T263D] | -0.24
7 | MRKPRAAVGSGHRKQAASQEGRQKHAKNNSQAKPSACDGLARQPEEVVLQASVSSYHLFRDVAEVTAFRGSLLSWYDQEKRDLPWRRRAEDEMDLDRRAYAVWVSEVMLQQTQVATVINYYTGWMQKWPTLQDLASASLEEVNQLWAGLGYYSRGRRLQEGARKVVEELGGHMPRTAETLQQLLPGVGRYTAGAIASIAFGQATGVVDGNVARVLCRVRAIGADPSSTLVSQQLWGLAQQLVDPARPGDFNQAAMELGATVCAPQRPLCSQCPVESLCRARQRVEQEQLLASGSLSGSPDVEECAPNTGQCHLCLPPSEPWDQTLGVVNFPRKASRKPPREESSATCVLEQPGALGAQILLVQRPNSGLLAGLWEFPSVTWEPSEQLQRKALLQELQRWAGPLPATHLRHLGEVVHTFSHIKLTYQVYGLALEGQTPVTTVPPGARWLTQEEFHTAAVSTAMKKVFRVYQGQQPGTCMGSKRSQVSSPCSRKKPRMGQQVLDNFFRSHISTDAHSLNSAAQ [T263A] | -0.167
8 | MRKPRAAVGSGHRKQAASQEGRQKHAKNNSQAKPSACDGLARQPEEVVLQASVSSYHLFRDVAEVTAFRGSLLSWYDQEKRDLPWRRRAEDEMDLDRRAYAVWVSEVMLQQTQVATVINYYTGWMQKWPTLQDLASASLEEVNQLWAGLGYYSRGRRLQEGARKVVEELGGHMPRTAETLQQLLPGVGRYTAGAIASIAFGQATGVVDGNVARVLCRVRAIGADPSSTLVSQQLWGLAQQLVDPARPGDFNQAAMELGATVCGPQRPLCSQCPVESLCRARQRVEQEQLLASGSLSGSPDVEECAPNTGQCHLCLPPSEPWDQTLGVVNFPRKASRKPPREESSATCVLEQPGALGAQILLVQRPNSGLLAGLWEFPSVTWEPSEQLQRKALLQELQRWAGPLPATHLRHLGEVVHTFSHIKLTYQVYGLALEGQTPVTTVPPGARWLTQEEFHTAAVSTAMKKVFRVYQGQQPGTCMGSKRSQVSSPCSRKKPRMGQQVLDNFFRSHISTDAHSLNSAAQ [T263G] | -0.115
9 | MRKPRAAVGSGHRKQAASQEGRQKHAKNNSQAKPSACDGLARQPEEVVLQASVSSYHLFRDVAEVTAFRGSLLSWYDQEKRDLPWRRRAEDEMDLDRRAYAVWVSEVMLQQTQVATVINYYTGWMQKWPTLQDLASASLEEVNQLWAGLGYYSRGRRLQEGARKVVEELGGHMPRTAETLQQLLPGVGRYTAGAIASIAFGQATGVVDGNVARVLCRVRAIGADPSSTLVSQQLWGLAQQLVDPARPGDFNQAAMELGATVCIPQRPLCSQCPVESLCRARQRVEQEQLLASGSLSGSPDVEECAPNTGQCHLCLPPSEPWDQTLGVVNFPRKASRKPPREESSATCVLEQPGALGAQILLVQRPNSGLLAGLWEFPSVTWEPSEQLQRKALLQELQRWAGPLPATHLRHLGEVVHTFSHIKLTYQVYGLALEGQTPVTTVPPGARWLTQEEFHTAAVSTAMKKVFRVYQGQQPGTCMGSKRSQVSSPCSRKKPRMGQQVLDNFFRSHISTDAHSLNSAAQ [T263I] | -0.0749
10 | MRKPRAAVGSGHRKQAASQEGRQKHAKNNSQAKPSACDGLARQPEEVVLQASVSSYHLFRDVAEVTAFRGSLLSWYDQEKRDLPWRRRAEDEMDLDRRAYAVWVSEVMLQQTQVATVINYYTGWMQKWPTLQDLASASLEEVNQLWAGLGYYSRGRRLQEGARKVVEELGGHMPRTAETLQQLLPGVGRYTAGAIASIAFGQATGVVDGNVARVLCRVRAIGADPSSTLVSQQLWGLAQQLVDPARPGDFNQAAMELGATVCCPQRPLCSQCPVESLCRARQRVEQEQLLASGSLSGSPDVEECAPNTGQCHLCLPPSEPWDQTLGVVNFPRKASRKPPREESSATCVLEQPGALGAQILLVQRPNSGLLAGLWEFPSVTWEPSEQLQRKALLQELQRWAGPLPATHLRHLGEVVHTFSHIKLTYQVYGLALEGQTPVTTVPPGARWLTQEEFHTAAVSTAMKKVFRVYQGQQPGTCMGSKRSQVSSPCSRKKPRMGQQVLDNFFRSHISTDAHSLNSAAQ [T263C] | -0.141
11 | MRKPRAAVGSGHRKQAASQEGRQKHAKNNSQAKPSACDGLARQPEEVVLQASVSSYHLFRDVAEVTAFRGSLLSWYDQEKRDLPWRRRAEDEMDLDRRAYAVWVSEVMLQQTQVATVINYYTGWMQKWPTLQDLASASLEEVNQLWAGLGYYSRGRRLQEGARKVVEELGGHMPRTAETLQQLLPGVGRYTAGAIASIAFGQATGVVDGNVARVLCRVRAIGADPSSTLVSQQLWGLAQQLVDPARPGDFNQAAMELGATVCHPQRPLCSQCPVESLCRARQRVEQEQLLASGSLSGSPDVEECAPNTGQCHLCLPPSEPWDQTLGVVNFPRKASRKPPREESSATCVLEQPGALGAQILLVQRPNSGLLAGLWEFPSVTWEPSEQLQRKALLQELQRWAGPLPATHLRHLGEVVHTFSHIKLTYQVYGLALEGQTPVTTVPPGARWLTQEEFHTAAVSTAMKKVFRVYQGQQPGTCMGSKRSQVSSPCSRKKPRMGQQVLDNFFRSHISTDAHSLNSAAQ [T263H] | -0.124
12 | MRKPRAAVGSGHRKQAASQEGRQKHAKNNSQAKPSACDGLARQPEEVVLQASVSSYHLFRDVAEVTAFRGSLLSWYDQEKRDLPWRRRAEDEMDLDRRAYAVWVSEVMLQQTQVATVINYYTGWMQKWPTLQDLASASLEEVNQLWAGLGYYSRGRRLQEGARKVVEELGGHMPRTAETLQQLLPGVGRYTAGAIASIAFGQATGVVDGNVARVLCRVRAIGADPSSTLVSQQLWGLAQQLVDPARPGDFNQAAMELGATVCEPQRPLCSQCPVESLCRARQRVEQEQLLASGSLSGSPDVEECAPNTGQCHLCLPPSEPWDQTLGVVNFPRKASRKPPREESSATCVLEQPGALGAQILLVQRPNSGLLAGLWEFPSVTWEPSEQLQRKALLQELQRWAGPLPATHLRHLGEVVHTFSHIKLTYQVYGLALEGQTPVTTVPPGARWLTQEEFHTAAVSTAMKKVFRVYQGQQPGTCMGSKRSQVSSPCSRKKPRMGQQVLDNFFRSHISTDAHSLNSAAQ [T263E] | -0.267
